Measurements from patent US20210046191A1.
Read-outs that look alike come from different tables or passages of the source. Values belong to the substance of their own block, whether it stands above or below them.

Columns and labels:
[1] = molecular target: C5a receptor C5aR (CD88) on human blood neutrophils (human) (UniProt P21730); experiment: cell-based or functional assay
[2] = molecular target: C5a receptor C5aR (CD88) on human blood neutrophils (human) (UniProt P21730); experiment: cell-based or functional assay; remark: listed apart in the source
[3] = molecular target: recombinant human C5a (rhC5a) (human) (UniProt P01031)
recombinant human C5a (rhC5a) (human), sequence (P01031 678-751 limits assumed): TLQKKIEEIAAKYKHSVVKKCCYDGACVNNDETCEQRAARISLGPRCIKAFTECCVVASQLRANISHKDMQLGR

C5a receptor C5aR (CD88) on human blood neutrophils (human), sequence (P21730 whole entry): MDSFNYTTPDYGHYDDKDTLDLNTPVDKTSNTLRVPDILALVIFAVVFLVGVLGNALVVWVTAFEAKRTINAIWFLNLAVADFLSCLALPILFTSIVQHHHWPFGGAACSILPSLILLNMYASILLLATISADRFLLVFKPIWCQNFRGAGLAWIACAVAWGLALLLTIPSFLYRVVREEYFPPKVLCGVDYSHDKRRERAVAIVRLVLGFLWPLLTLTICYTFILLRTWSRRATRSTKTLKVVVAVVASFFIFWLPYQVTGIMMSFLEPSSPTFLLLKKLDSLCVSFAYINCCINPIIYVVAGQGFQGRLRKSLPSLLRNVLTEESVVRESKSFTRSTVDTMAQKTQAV

Substance: PMX-53 (peptide)
Blocking activity (%) on CD11b upregulation; Pat. 088 | PMX 53 (50 nM) [1]: 55.5%
Blocking activity (%) on CD11b upregulation; Pat. 092 | PMX 53 (50 nM) [1]: 56.7%
Blocking activity (%) on CD11b upregulation; huPP | rhC5a | PMX 53 (50 nM) [1]: 50.3%
CD11b (mean MFI) on neutrophils; Pat. 088 | PMX 53 (50 nM) [1]: 4730 MFI
CD11b (mean MFI) on neutrophils; Pat. 092 | PMX 53 (50 nM) [1]: 4660 MFI
CD11b (mean MFI) on neutrophils; huPP | rhC5a | PMX 53 (50 nM) [1]: 4240 MFI
Blocking activity (%) on CD11b upregulation; Pat. 088 | PMX 53 (20 µM) [2]: 104%
Blocking activity (%) on CD11b upregulation; Pat. 092 | PMX 53 (20 µM) [2]: 109%
Blocking activity (%) on CD11b upregulation; huPP | rhC5a | PMX 53 (20 µM) [2]: 108%
CD11b (mean MFI) on neutrophils; Pat. 088 | PMX 53 (20 µM) [2]: 2030 MFI
CD11b (mean MFI) on neutrophils; Pat. 092 | PMX 53 (20 µM) [2]: 1910 MFI
CD11b (mean MFI) on neutrophils; huPP | rhC5a | PMX 53 (20 µM) [2]: 1850 MFI

Substance: anti-C5aR (CD88) antibody Clone 7H110
Blocking activity (%) on CD11b upregulation; Pat. 088 | Clone 7H110 (50 nM) [1]: 75.7%
Blocking activity (%) on CD11b upregulation; Pat. 092 | Clone 7H110 (50 nM) [1]: 78.7%
Blocking activity (%) on CD11b upregulation; huPP | rhC5a | Clone 7H110 (50 nM) [1]: 70.7%
CD11b (mean MFI) on neutrophils; Pat. 088 | Clone 7H110 (50 nM) [1]: 3560 MFI
CD11b (mean MFI) on neutrophils; Pat. 092 | Clone 7H110 (50 nM) [1]: 3390 MFI
CD11b (mean MFI) on neutrophils; huPP | rhC5a | Clone 7H110 (50 nM) [1]: 3380 MFI

Second part, the substance after the results:

Blocking activity (%) on CD11b upregulation; Pat. 088 | Clone S5/1 (50 nM) [1]: 72.7%
Blocking activity (%) on CD11b upregulation; Pat. 092 | Clone S5/1 (50 nM) [1]: 75.9%
Blocking activity (%) on CD11b upregulation; huPP | rhC5a | Clone S5/1 (50 nM) [1]: 73%
CD11b (mean MFI) on neutrophils; Pat. 088 | Clone S5/1 (50 nM) [1]: 3740 MFI
CD11b (mean MFI) on neutrophils; Pat. 092 | Clone S5/1 (50 nM) [1]: 3560 MFI
CD11b (mean MFI) on neutrophils; huPP | rhC5a | Clone S5/1 (50 nM) [1]: 3290 MFI
Substance: anti-C5aR (CD88) antibody Clone S5/1

blocking activity (%) of rhC5a-induced CD11b upregulation on neutrophils, human whole blood, flow cytometry; bar 'IgG4 control : rhC5a = 1:1' against rhC5a (16.7 nM) alone [3]: 7%
Substance: irrelevant human IgG4 antibody

CD11b (mean MFI) on neutrophils; huPP | rhC5a (20 nM) [1]: 6330 MFI
CD11b (mean MFI) on neutrophils; huPP | rhC5a (20 nM) [2]: 8330 MFI
Substance: recombinant human C5a (rhC5a) (from UniProt P01031 678-751) (ligand)
